{"source": "patent US20210094988A1", "about": "(UNIVERSITY OF FLORIDA RESEARCH FOUNDATION, published 2021)", "proteins": {"B1": {"name": "recombinant SP-free Coprinus comatus Y3 protein (monomer) (other)", "chain": "QDPLSCYDNFGNRDVAACARFIDDFCDTLTPNIYRPRDNGQRCYVVNGHKCDFTVFNTNNGGSPIRASTPNCKTVLRAAANRCPTGGRGKINPSAPFLFAIDPNDGDCSTDF", "modifications": "pyroglutamic acid (PCA) formed from Gln19; four intramolecular disulfide bridges Cys24-Cys101, Cys36-Cys69, Cys61-Cys126, Cys44-Cys90", "notes": "also called recombinant Y3; mature recombinant Y3 protein"}}, "molecular_target": "the molecule itself", "test": "X-ray crystallography, homodimer in the crystal"}
{"protein": "B1", "values": [{"measurement": "binding result", "result": "binds"}]}
